Here are results for two molecules from article doi:10.1101/2021.01.14.426688 (bioRxiv, 2021).

Residue numbers refer to the chain shown, from its start.

For the test, the target named is ClpXP (ClpX with ClpP protease) (E. coli, UniProt P0A6H1 1-424; P0A6G7 15-207). Nature of the test: ultrafiltration.
Sequence of ClpXP (ClpX with ClpP protease) (P0A6H1 whole entry, chain 1 of 2): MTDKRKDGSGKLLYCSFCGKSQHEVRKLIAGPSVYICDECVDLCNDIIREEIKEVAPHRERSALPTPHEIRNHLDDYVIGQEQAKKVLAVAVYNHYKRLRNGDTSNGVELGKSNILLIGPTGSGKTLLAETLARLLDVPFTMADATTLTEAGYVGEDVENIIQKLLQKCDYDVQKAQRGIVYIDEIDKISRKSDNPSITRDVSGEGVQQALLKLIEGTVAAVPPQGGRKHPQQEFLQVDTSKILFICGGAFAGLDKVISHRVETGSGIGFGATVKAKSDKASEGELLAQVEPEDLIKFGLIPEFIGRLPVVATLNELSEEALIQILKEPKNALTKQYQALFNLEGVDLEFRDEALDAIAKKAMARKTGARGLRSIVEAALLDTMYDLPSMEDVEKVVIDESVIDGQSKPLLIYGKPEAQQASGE
Sequence of ClpXP (ClpX with ClpP protease) (P0A6G7 15-207, chain 2 of 2): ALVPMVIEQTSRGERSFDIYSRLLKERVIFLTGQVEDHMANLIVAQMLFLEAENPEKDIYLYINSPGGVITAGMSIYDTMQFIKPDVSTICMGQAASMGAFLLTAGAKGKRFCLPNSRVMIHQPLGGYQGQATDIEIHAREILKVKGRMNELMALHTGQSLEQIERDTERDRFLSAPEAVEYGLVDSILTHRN

B1: Gfp-IDR_(FtsZ) (Gfp fused to the C-terminal 67 amino acids of E. coli FtsZ, residues 317-383) (domain or fragment, UniProt P0A9A6 317-383, looked up)
chain: MDKRPEITLVTNKQVQQPVMDRYQQHGMAPLTQEQKPVAKVVNDNAPQTAKEPDYLDIPAFLRKQAD
In the case of B1, the binding result is listed as “binds”.

B2: Gfp-IDR_(FtsZ) mut-1 (Ala substitutions at FtsZ positions 352 through 358) (domain or fragment, E. coli, UniProt P0A9A6 317-383, looked up)
chain: B1 chain with K36A, P37A, V38A, K40A, V41A, V42A
B2: the binding result is on record as “binds”.
